In article PMC9365158 (2022):

How the values were obtained:
RBD-mFc = RBD-mFc (SARS-CoV-2, UniProt P0DTC2); assay: BLI
S1-hFc = S1-hFc (SARS-CoV-2); assay: BLI

B1: RBD-1-2G(NCATS-BL8125) (VHH)
VHH: EVQLVESGGGLVQPGGSLRLSCAASGFSSIVYMGWFRQAPGKGRELVAAIDASGSTTNYPDSVEGRFTISRDNAKRMVYLQMNSLRAEDTAVYYCAIAYFTSPEYVVSQGWGQGTQVTVSS
Binder B1 has a koff (RBD-mFc) of 0.00024 s⁻¹ and a koff (S1-hFc) of 0.0002 s⁻¹.
